Laboratory results: paper PMC11026163, “Structural basis for excitatory neuropeptide signaling” (Nature Structural & Molecular Biology, 2024)
“And” between values parts separate entries of the source, which are not always exact repeats. Identical values can stand only once. Values belong to the molecule of their own block, whether it stands above or below them. Non-standard residues stand in square brackets, D forms with d. No end group written: not given here. Cit = NC(=O)NCCC[C@H](N)C(=O)O

Legend:
FaNaC1 H297S [1] = experiment: TEVC, diminazene block of constitutive current of H297S channels; assay type: cell-based, Malacoceros fuliginosus; settings: 30 µM diminazene, mean ± s.e.m., n = 7
Source text: (§1) Fig. 6 FaNaC1 gating mechanism. a, Overlay of ligand-free FaNaC1 (blue) and FaNaC1/FMRFa/diminazene (orange) structures. Adjacent subunit in darker shades. b, Magnified views of boxed regions, left to right: ligand binding site; palm domain; β-turn–TM2a/TM1 interactions. Selected side chains shown as sticks and labeled. c, Illustration of one subunit (left subunit in a) moving during gating: peripheral rolling, internal stasis and β-turn moving outward to allow channel expansion. α6 helix from adjacent subunit in gray. d, Top left and bottom, example recordings from oocytes expressing mutant H297S FaNaC1 channels (scale bars, x, 30 s; y, 1 µA). Top right, mean (± s.e.m., n = 5 oocytes) responses of H297S channels to FMRFa and ASSFVRIa normalized to maximum FMRFa-gated current (I/Imax-FMRFa), compared to WT channels. […]
(§2) Oocytes were clamped at −60 mV unless otherwise indicated, and currents were measured by two-electrode voltage clamp, as previously described, using a Warner OC-725C amplifier and HEKA LIH8 + 8 interface with Patchmaster 2x90.4 software (HEKA), sampling at 500 Hz or 1 kHz and filtering at 100 Hz. Current amplitudes were measured in Clampfit v.11 (Molecular Devices). […] Data were analyzed in Prism v.9 (GraphPad) and fit with Prism v.9 variable-slope four-parameter nonlinear regression, yielding half-maximal effective activating/inhibiting concentrations (EC50/IC50). […]

FaNaC1 G3′S = experiment: TEVC, diminazene block of sustained FMRFa-gated current at mutant channel; assay type: cell-based, Malacoceros fuliginosus; settings: block of Isus
Method: (§3) Fig. 5 FaNaC1/FMRFa/diminazene structure. a, Pore-lining residues in FaNaC1/FMRFa/diminazene structure (left) and pore radius for all four cryo-EM structures calculated in HOLE[53] (right). b, Top, diminazene structure (ionized at pH 7.4). Middle, peak (Ipeak) and sustained (Isus) FMRFa (3 µM)-gated currents through FaNaC1 in the absence and presence of diminazene (10 μM). Bottom, % block (individual data points, n = 3 oocytes at −60 mV, 4 at 10 mV, 3 at 80 mV; and means, bars) of Isus by diminazene at three different membrane potentials. c, Magnified view of FaNaC1/FMRFa/diminazene model, showing nonprotein cryo-EM density in the pore as mesh. d, Concentration-dependent block of Isus by diminazene at WT and mutant channels (mean ± s.e.m., n = 4 oocytes, except D0′N—see Source data). e, FMRFa-gated current amplitude (Vm = −60 mV; individual data points (n = 5) and means, bars) in extracellular solutions based on different cations. Source data
(§4) Given the drug’s effect on pore radius and its voltage-dependent block of currents, we hypothesized that this nonprotein density derives from partially unresolved or low occupancy diminazene molecules. […] We also generated mutant G2′S channels but saw no currents in oocytes injected with these RNAs (n = 8 over two batches of ooyctes). An additional helical turn higher, the S-1′A substitution caused constitutive current, as expected for mutating the TM2a-1′ degenerin position, but had no effect on diminazene potency (Fig. 5d and Extended Data Fig. 9c). […] Thus, we interpret our FaNaC1/FMRFa/diminazene structure as an FMRFa-gated, diminazene-blocked, open-channel conformation.
(§5) FaNaC1 in a modified pSP64 plasmid vector (Supplementary Notes) was used for mutagenesis and messenger RNA preparation and injection into stage V/VI Xenopus laevis oocytes (EcoCyte Bioscience). Mutants were generated by partly overlapping primers (Supplementary Table 1 and ref. [75]), and channel-coding inserts were Sanger sequenced. […] NaCl was replaced with KCl, NH4Cl or H3CNH3Cl (Merck) where appropriate.
(§6) Oocytes were clamped at −60 mV unless otherwise indicated, and currents were measured by two-electrode voltage clamp, as previously described, using a Warner OC-725C amplifier and HEKA LIH8 + 8 interface with Patchmaster 2x90.4 software (HEKA), sampling at 500 Hz or 1 kHz and filtering at 100 Hz. Current amplitudes were measured in Clampfit v.11 (Molecular Devices). N values refer to experiments performed on different oocytes. Data were analyzed in Prism v.9 (GraphPad) and fit with Prism v.9 variable-slope four-parameter nonlinear regression, yielding half-maximal effective activating/inhibiting concentrations (EC50/IC50). In establishing EC50 values for activation by FMRFa, we waited 4 min between applications of increasing concentrations. […]

FaNaC1 S-1′A = experiment: as above; assay type: cell-based, Malacoceros fuliginosus; settings: block of Isus
Method: as §3, §4, §5, §6

FaNaC1 D0′N = experiment: as above; assay type: cell-based, Malacoceros fuliginosus; settings: block of Isus
Method: as §3, §4, §5, §6

FaNaC1 G6′S = experiment: as above; assay type: cell-based, Malacoceros fuliginosus; settings: block of Isus
Method: as §3, §4, §5, §6

ENaCs = ENaCs possess asparagine at the 0′ position; cited from earlier work
Source text: Given the drug’s effect on pore radius and its voltage-dependent block of currents, we hypothesized that this nonprotein density derives from partially unresolved or low occupancy diminazene molecules. […] We ...

FaNaC1 (WT) [2] = target: T1, FaNaC1 (WT) (Malacoceros fuliginosus, UniProt A0AAN0NP85); experiment: TEVC, diminazene block of peak and sustained FMRFa-gated current, WT FaNaC1 in oocytes; assay type: cell-based; settings: per oocyte
T1 sequence (A0AAN0NP85 1-600): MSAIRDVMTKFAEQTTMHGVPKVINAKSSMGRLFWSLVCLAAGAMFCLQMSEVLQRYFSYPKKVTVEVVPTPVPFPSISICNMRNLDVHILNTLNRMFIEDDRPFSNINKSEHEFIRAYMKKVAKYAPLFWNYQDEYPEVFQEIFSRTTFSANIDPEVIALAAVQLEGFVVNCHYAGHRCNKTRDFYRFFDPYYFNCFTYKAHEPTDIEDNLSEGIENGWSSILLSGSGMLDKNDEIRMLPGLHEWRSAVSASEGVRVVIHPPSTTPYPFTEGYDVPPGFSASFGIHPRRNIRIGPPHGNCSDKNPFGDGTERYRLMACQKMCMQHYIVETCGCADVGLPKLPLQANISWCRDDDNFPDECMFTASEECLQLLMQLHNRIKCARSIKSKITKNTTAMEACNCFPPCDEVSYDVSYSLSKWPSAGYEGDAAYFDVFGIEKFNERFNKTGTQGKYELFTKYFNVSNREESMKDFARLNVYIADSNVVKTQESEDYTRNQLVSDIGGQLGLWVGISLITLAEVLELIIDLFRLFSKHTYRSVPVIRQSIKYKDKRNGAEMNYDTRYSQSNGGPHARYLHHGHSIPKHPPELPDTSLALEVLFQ
Method: as §5
(§7) Current amplitudes were measured in Clampfit v.11 (Molecular Devices). N values refer to experiments performed on different oocytes. Data were analyzed in Prism v.9 (GraphPad) and fit with Prism v.9 variable-slope four-parameter nonlinear regression, yielding half-maximal effective activating/inhibiting concentrations (EC50/IC50). […] Mean ± standard error of the mean (s.e.m.) EC50/IC50 from fits to individual cells reported in Main. Currents shown in figures are further filtered (20 Hz) and decimated (50×) in Clampfit 11 for smaller file size.
(a) 1 μM FMRF-gated currents with and without diminazene in an oocyte expressing wildtype (WT) FaNaC1. […] Scale bars: x, 5 s; y, 0.2 µA. (b) Mean ± SEM normalized peak (n = 4 oocytes) and sustained (n = 7 oocytes) current amplitude in the presence of increasing concentrations of diminazene. […] Scale bars: x, 5 s; y, 0.1 µA. Source data

[3] = target: FMRFamide-gated sodium channel 1 (FaNaC1) from Malacoceros fuliginosus (Malacoceros fuliginosus); experiment: cryo-EM structure; FaNaC1 in POPC:POPG (3:1) lipid nanodiscs, 20 mM HEPES pH 7.6, 150 mM NaCl; alone, or with FMRFa 30 µM or ASSFVRIa 100 µM added directly before freezing; C3 symmetry imposed
FaNaC1 (WT) [4] = target: T1, FaNaC1 (WT); experiment: Two-electrode voltage clamp, peptide-gated currents in Xenopus laevis oocytes expressing WT FaNaC1; assay type: cell-based
Method: as §5, §7

FaNaC1 H297S [5] = experiment: TEVC, FMRFa- and ASSFVRIa-gated currents at H297S channels; assay type: cell-based, Malacoceros fuliginosus; settings: normalized to maximum FMRFa-gated current
Source text: as §1, §2

[6] = target: FMRFamide-gated sodium channel 1 (FaNaC1) from Malacoceros fuliginosus (Malacoceros fuliginosus)
[7] = target: FaNaC1 F97C modified by MTSET (Malacoceros fuliginosus)
[8] = target: FaNaC1 F97C (Malacoceros fuliginosus)
[9] = target: FaNaC1 F129C modified by MTSET (Malacoceros fuliginosus)
[10] = target: FaNaC1 M238C modified by MTSET (Malacoceros fuliginosus)
[11] = target: FaNaC1 M238C (Malacoceros fuliginosus)
[12] = target: FaNaC1 F129C (Malacoceros fuliginosus)
[13] = target: FaNaC1 F129L (Malacoceros fuliginosus)
[14] = target: FaNaC1 F129Q (Malacoceros fuliginosus)
[15] = target: FMRFamide-gated sodium channel 1 (FaNaC1) from Malacoceros fuliginosus (Malacoceros fuliginosus); remark: listed apart in the source
[16] = target: FaNaC1 V122A (Malacoceros fuliginosus)
[17] = target: FaNaC1 F129A (Malacoceros fuliginosus)
[18] = [Diminazene] 1e-7 M, 1 μM FMRF-gated current

Molecule: N=C(N)c1ccc(/N=N/Nc2ccc(C(=N)N)cc2)cc1 [diminazene]
- block of constitutive current (FaNaC1 H297S [1]): 76 ± 5%
- effect of mutation on diminazene potency (FaNaC1 G3′S): modestly reduced
- effect of mutation on diminazene potency (FaNaC1 S-1′A): no effect
- effect of mutation on diminazene potency (FaNaC1 D0′N): decreased diminazene potency approximately tenfold
- effect of mutation on diminazene potency (FaNaC1 G6′S): drastically reduced
- sensitivity to diminazene (ENaCs): insensitive
- Remaining peak current (FaNaC1 (WT) [2]; [18]): 0.9158 and 0.934 and 1.161 and 1.255
- Remaining sustained current (FaNaC1 (WT) [2]; [18]): 0.6522 and 0.7647 and 0.9533 and 0.9846 and 0.7407 and 0.6744
- Remaining peak current (FaNaC1 (WT) [2]; [Diminazene] 1e-6 M): 0.5053 and 0.783 and 0.8871 and 0.9636

- stoichiometry N [3]: 3
Molecule: FMRFamide-gated sodium channel 1 (FaNaC1) from Malacoceros fuliginosus (receptor)

Molecule: FVRI–NH2 [FVRIa, four C-terminal residues of ASSFVRIa]
- activity compared to parent peptide ASSFVRIa (FaNaC1 (WT) [4]): very similar activity

Molecule: ASSFVRI-NH2 [ASSFVRIa, product of the FVRIamide precursor in several annelids]
- agonist type (FaNaC1 (WT) [4]): partial agonist
- relative efficacy at H297S compared to WT (FaNaC1 H297S [5]): increased

Molecule: FMRA–NH2 [FMRAa, FMRFa analog lacking the C-terminal F4 side chain]
- activation of current (FaNaC1 (WT) [4]; 100 μM peptide): barely activating detectable currents

- EC50 of peptide-gated current, two-electrode voltage clamp, Xenopus oocytes expressing WT FaNaC1 [6]: 4500 nM
Molecule: FMQF-NH2 [FMQF-NH2]

- EC50 of FMRFa-gated current with MTSET, two-electrode voltage clamp, Xenopus oocytes [7]: 4000 nM
- EC50 of FMRFa-gated current without MTSET, two-electrode voltage clamp, Xenopus oocytes [8]: 250 nM
- EC50 of FMRFa-gated current with MTSET, two-electrode voltage clamp, Xenopus oocytes [9]: > 10000 nM
- EC50 of FMRFa-gated current with MTSET, two-electrode voltage clamp, Xenopus oocytes [10]: 580 nM
- EC50 of FMRFa-gated current without MTSET, two-electrode voltage clamp, Xenopus oocytes [11]: 140 nM
- EC50 of FMRFa-gated current without MTSET, two-electrode voltage clamp, Xenopus oocytes [12]: 5000 nM
- EC50 of FMRFa-gated current, two-electrode voltage clamp, Xenopus oocytes [13]: 9000 nM
- fold decrease of FMRFa potency (EC50 of gated current) against WT, two-electrode voltage clamp, Xenopus oocytes [14]: 100 fold
- EC50 of FMRFa-gated current, two-electrode voltage clamp, Xenopus oocytes expressing WT FaNaC1 [15]: 850 nM
- EC50 of FMRFa-gated current, two-electrode voltage clamp, Xenopus oocytes (20-fold increase in potency) [16]: 40 nM
- EC50 of FMRFa-gated current, two-electrode voltage clamp, Xenopus oocytes [17]: 18000 nM
Molecule: H-FMRF-NH2 [FMRFamide (H-Phe-Met-Arg-Phe-NH2)]

- EC50 of peptide-gated current, two-electrode voltage clamp, Xenopus oocytes expressing WT FaNaC1 [6]: 300 nM
Molecule: AMRF-NH2 [AMRF-NH2]

- EC50 of peptide-gated current, two-electrode voltage clamp, Xenopus oocytes expressing WT FaNaC1 [6]: 690 nM
B1: FM(citrulline)F-NH2 (peptide)
peptide: FM[Cit]F-NH2
modifications: N-terminus assumed
SMILES: CSCC[C@H](NC(=O)[C@@H](N)Cc1ccccc1)C(=O)N[C@@H](CCCNC(N)=O)C(=O)N[C@@H](Cc1ccccc1)C(N)=O
